The values that follow come from the supplement of paper PMC7877785.

The data set is described as follows: self-splicing fitness, log relative to wild type (ln ratio); higher = more splicing; Tetrahymena group I intron in knt gene, E. coli kanamycin selection, DiMSum; sequences stand for … in CUCUCU…GGAGGGAAAAGUUAUCAGGCAUGCACCUGGUAGCUAGUCUUUAAACCAAUAGAUUGCAUCGGUUUAAAAGGCAAGACCGUCAAAUUGCGGGAAAGGGGUCAACAGCCGUUCAGUACCAAGUCUCAGGGGAAACUUUGAGAUGGCCUUGCAAAGGGUAUGGUAAUAAGCUGACGGACAUGGUCCUAACCACGCAGCCAAGUCCUAAGUCAACAGAUCUUCUGUUGAUAUGGAUGCAGUUCACAGACUAAAUGUCGGUCGGGGAAGAUGUAUUCUUCUCAUAAGAUAUAGUCGGACCUCUCCUUAAUGGGAGCUAGCGGAUGAAGUGAUGCAACACUGGAGCCGCUGGGAACUAAUUUGUAUGCGAAAGUAUAUUGAUUAGUUUUGGAGUACUCGUGGUCG
Summed up: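 Fitness was computed with DiMSum as the error-weighted combination of replicate fold changes, kanamycin versus none, each normalised to wild type. The library randomised all eight intron nucleotides of the P1ex region, with the intron placed in the knt kanamycin-resistance gene on pET-22b(+) in E. coli BL21(DE3). Six replicate transformations were grown overnight at 37°C or 30°C on LB agar with or without 25 μg/mL kanamycin, plus 100 μg/mL carbenicillin, 50 μM IPTG and 0.2% rhamnose. Pooled colonies were amplicon-sequenced on an Illumina HiSeq 2500.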

± gives the uncertainty stated by the source.

Consider CUGCAGCAAUAUUACGAAUG, for which the “self-splicing fitness (ln)” value (30 °C) was -0.593 ± 0.066 and the “self-splicing fitness (ln)” value (37 °C) is -0.0469 ± 0.081. On to CUCGAGCAAUAUUACGGACA, for which the “self-splicing fitness (ln)” value (30 °C) was -2.98 ± 0.33 and the “self-splicing fitness (ln)” value (37 °C) is -1.35 ± 0.29. As for AAACAGCAAUAUUACGACAU, the “self-splicing fitness (ln)” value reads like this: (30 °C) -0.514 ± 0.011; (37 °C) -0.112 ± 0.032. In the same order, the values of CCAAAGCAAUAUUACGGUAU are -3.41 ± 0.18 and -2.08 ± 0.25. With AAUAAGCAAUAUUACGUACC, the “self-splicing fitness (ln)” value by setting is: (30 °C) -0.867 ± 0.14; (37 °C) -0.89 ± 0.15.

As to GACAAGCAAUAUUACGCUAU, the “self-splicing fitness (ln)” value (30 °C) is -1.96 ± 0.094 and the “self-splicing fitness (ln)” value (37 °C) was -1.17 ± 0.1. Regarding GUAGAGCAAUAUUACGUCAA, the “self-splicing fitness (ln)” value (30 °C) was -2.01 ± 0.14 and the “self-splicing fitness (ln)” value (37 °C) is -2.38 ± 0.29. In the same order, the values of UCGCAGCAAUAUUACGACCA are -1.83 ± 0.13 and -1.07 ± 0.14. In the same order, the values of CCGAAGCAAUAUUACGCUCG are -1.57 ± 0.18 and -1.53 ± 0.21. For the sequence UGUGAGCAAUAUUACGGUGC, the “self-splicing fitness (ln)” value runs as follows: (30 °C) -3.57 ± 0.25; (37 °C) -1.77 ± 0.21. Regarding GGCAAGCAAUAUUACGCCCA, the “self-splicing fitness (ln)” value was -1.95 ± 0.15 (30 °C) and -0.268 ± 0.12 (37 °C). The corresponding values for ACUUAGCAAUAUUACGCACC are -1.99 ± 0.23 and 0.826 ± 0.29. Turning to ACGCAGCAAUAUUACGCGGG, the “self-splicing fitness (ln)” value is -2.94 ± 0.12 (30 °C) and -0.419 ± 0.099 (37 °C). The corresponding values for GGUAAGCAAUAUUACGAUCU are -0.636 ± 0.1 and 1.04 ± 0.13. For the sequence AGGUAGCAAUAUUACGACAC, the “self-splicing fitness (ln)” value is, setting by setting: (30 °C) -0.582 ± 0.018; (37 °C) -0.427 ± 0.036.

With GAAGAGCAAUAUUACGUGAU, the “self-splicing fitness (ln)” value by setting is: (30 °C) -3.4 ± 0.14; (37 °C) -1.51 ± 0.13. As for ACUAAGCAAUAUUACGUAUG, the “self-splicing fitness (ln)” value is, setting by setting: (30 °C) -3.55 ± 0.16; (37 °C) -1.25 ± 0.14. Regarding CAGGAGCAAUAUUACGAUAA, the “self-splicing fitness (ln)” value is, setting by setting: (30 °C) -3.33 ± 0.2; (37 °C) -1.88 ± 0.16.

For CCGGAGCAAUAUUACGCUUG, the “self-splicing fitness (ln)” value is -2.67 ± 0.24 (30 °C) and -2.22 ± 0.27 (37 °C). In the case of UCUAAGCAAUAUUACGUUCG, the “self-splicing fitness (ln)” value is -1.38 ± 0.12 (30 °C) and -1.12 ± 0.12 (37 °C).

For AAGUAGCAAUAUUACGGUGU, the “self-splicing fitness (ln)” value is -2.2 ± 0.09 (30 °C) and -1.23 ± 0.099 (37 °C). On to CGAGAGCAAUAUUACGUGUC, for which the “self-splicing fitness (ln)” value reads like this: (30 °C) -3.05 ± 0.14; (37 °C) -2.17 ± 0.16. In the case of AUGCAGCAAUAUUACGCACG, the “self-splicing fitness (ln)” value is -1.46 ± 0.091 (30 °C) and -0.13 ± 0.1 (37 °C). In the same order, the values of UGUAAGCAAUAUUACGGAUG are -0.704 ± 0.07 and -0.103 ± 0.095.

Take GAGGAGCAAUAUUACGGAGG: the “self-splicing fitness (ln)” value (37 °C) was -2.2 ± 0.24. The same measure, in the same setting: with GACAAGCAAUAUUACGCAGC the figure was -1.7 ± 0.22. For the sequence ACUAAGCAAUAUUACGUCAA, the “self-splicing fitness (ln)” value runs as follows: (30 °C) -3.07 ± 0.17; (37 °C) -1.35 ± 0.14. Consider AGGUAGCAAUAUUACGGACU, for which the “self-splicing fitness (ln)” value reads like this: (30 °C) 0.0184 ± 0.014; (37 °C) 0.271 ± 0.033. The corresponding values for UUCUAGCAAUAUUACGCGUU are -2.47 ± 0.15 and -1.9 ± 0.13. In the same order, the values of UACCAGCAAUAUUACGCGUG are 0.016 ± 0.081 and 0.0464 ± 0.099. Consider GCACAGCAAUAUUACGUCCA, for which the “self-splicing fitness (ln)” value (30 °C) was -0.954 ± 0.12 and the “self-splicing fitness (ln)” value (37 °C) is -0.96 ± 0.11. Turning to AACAAGCAAUAUUACGACGA, the “self-splicing fitness (ln)” value (30 °C) is -1.15 ± 0.07 and the “self-splicing fitness (ln)” value (37 °C) was -0.468 ± 0.074. Take AGGAAGCAAUAUUACGUAAU: the “self-splicing fitness (ln)” value was -0.858 ± 0.14 (30 °C) and -1.42 ± 0.18 (37 °C).

Turning to ACGCAGCAAUAUUACGCUAU, the “self-splicing fitness (ln)” value (30 °C) is -1.25 ± 0.077 and the “self-splicing fitness (ln)” value (37 °C) is -0.724 ± 0.11. Regarding GGCCAGCAAUAUUACGCAUU, the “self-splicing fitness (ln)” value reads like this: (30 °C) -0.554 ± 0.05; (37 °C) 0.109 ± 0.067.

With GAUGAGCAAUAUUACGGGGU, the “self-splicing fitness (ln)” value was -3.36 ± 0.23 (30 °C) and -2.92 ± 0.32 (37 °C). Turning to UCGGAGCAAUAUUACGUCCC, where the note is “30 °C”, the “self-splicing fitness (ln)” value was -1.39 ± 0.46.

On to AUGCAGCAAUAUUACGGACA, for which the “self-splicing fitness (ln)” value is -1.13 ± 0.15 (30 °C) and -0.421 ± 0.13 (37 °C). In the same order, the values of GAGAAGCAAUAUUACGGCCA are -0.417 ± 0.16 and -0.286 ± 0.17.

Take UAUGAGCAAUAUUACGUGAU: the “self-splicing fitness (ln)” value was -3.04 ± 0.15 (30 °C) and -2.76 ± 0.25 (37 °C). Turning to CAGUAGCAAUAUUACGCAAC, the “self-splicing fitness (ln)” value (37 °C) was -1.53 ± 0.36.

For AGGUAGCAAUAUUACGCGUA, the “self-splicing fitness (ln)” value is, setting by setting: (30 °C) -1.22 ± 0.017; (37 °C) -0.701 ± 0.034. In the same order, the values of UGCAAGCAAUAUUACGUCGA are -1.09 ± 0.082 and -0.989 ± 0.089. The corresponding values for ACGGAGCAAUAUUACGCCAA are -3.46 ± 0.33 and -3.34 ± 0.47. For the sequence CUACAGCAAUAUUACGUCCA, the “self-splicing fitness (ln)” value is -3.07 ± 0.25 (30 °C) and -1.3 ± 0.24 (37 °C). UGGUAGCAAUAUUACGAUAA: the “self-splicing fitness (ln)” value (30 °C) is -1.45 ± 0.21 and the “self-splicing fitness (ln)” value (37 °C) was -0.6 ± 0.24. In the same order, the values of UCCUAGCAAUAUUACGUCGC are -4.08 ± 0.42 and -2.58 ± 0.36. As for UUUAAGCAAUAUUACGGUAG, the “self-splicing fitness (ln)” value was -0.741 ± 0.17 (30 °C) and -0.971 ± 0.21 (37 °C). GACAAGCAAUAUUACGUUCU: the “self-splicing fitness (ln)” value was -2.9 ± 0.13 (30 °C) and -1.45 ± 0.12 (37 °C). In the same order, the values of UUAAAGCAAUAUUACGGCUU are -1.44 ± 0.082 and -0.99 ± 0.11. The corresponding values for AGCAAGCAAUAUUACGACCA are -0.697 ± 0.09 and -0.178 ± 0.12. In the case of AGUUAGCAAUAUUACGCAUG, the “self-splicing fitness (ln)” value is, setting by setting: (30 °C) -1.91 ± 0.078; (37 °C) -1.15 ± 0.1.

As to AACAAGCAAUAUUACGGCUC, the “self-splicing fitness (ln)” value is, setting by setting: (30 °C) -0.27 ± 0.071; (37 °C) 0.236 ± 0.1. For the sequence UUACAGCAAUAUUACGAGAG, the “self-splicing fitness (ln)” value reads like this: (30 °C) -1.48 ± 0.11; (37 °C) -2.4 ± 0.15. Consider UAGGAGCAAUAUUACGGCAC, for which the “self-splicing fitness (ln)” value is, setting by setting: (30 °C) -2.4 ± 0.15; (37 °C) -2.53 ± 0.26. In the same order, the values of AAUCAGCAAUAUUACGCAGC are -1.36 ± 0.15 and -0.207 ± 0.14. In the same order, the values of AUACAGCAAUAUUACGAGCU are -1.51 ± 0.1 and -1.26 ± 0.11. The corresponding values for CGCAAGCAAUAUUACGCUGA are -3.11 ± 0.26 and -2.01 ± 0.22. With GUGAAGCAAUAUUACGUGCA, the “self-splicing fitness (ln)” value (30 °C) is 0.391 ± 0.085 and the “self-splicing fitness (ln)” value (37 °C) is -0.0531 ± 0.11.

On to GCCGAGCAAUAUUACGUCCU, for which the “self-splicing fitness (ln)” value is -2.96 ± 0.14 (30 °C) and -0.795 ± 0.13 (37 °C). In the same order, the values of CGAGAGCAAUAUUACGGGCA are -3.47 ± 0.28 and -2.53 ± 0.44.
